Test results reported in article PMC9122495, “Seipin transmembrane segments critically function in triglyceride nucleation and lipid droplet budding from the membrane” (eLife, 2022).

Target: the molecule itself
Assay: cryo-EM structure; LDAF1-FLAG/seipin (1–310) sample in PMAL C8, 25 mM HEPES pH 7.4, 150 mM NaCl, 2 mg/ml, PEGylated with MS(PEG)12; 3D classification without symmetry; one class with the luminal domains used; TM region at low resolution

B1: seipin (1–310) (domain or fragment, human, UniProt Q96G97 1-310, looked up)
chain: MVNDPPVPALLWAQEVGQVLAGRARRLLLQFGVLFCTILLLLWVSVFLYGSFYYSYMPTVSHLSPVHFYYRTDCDSSTTSLCSFPVANVSLTKGGRDRVLMYGQPYRVTLELELPESPVNQDLGMFLVTISCYTRGGRIISTSSRSVMLHYRSDLLQMLDTLVFSSLLLFGFAEQKQLLEVELYADYRENSYVPTTGAIIEIHSKRIQLYGAYLRIHAHFTGLRYLLYNFPMTCAFIGVASNFTFLSVIVLFSYMQWVWGGIWPRHRFSLQVNIRKRDNSRKEVQRRISAHQPGPEGQEESTPQSDVTED
notes: seipin, human, residues 1-310; No tag is stated for seipin; It was purified through the FLAG tag of co-expressed LDAF1; The sample was treated with MS(PEG)12 methyl-PEG-NHS-ester before cryo-EM; The introduction calls human seipin an undecamer, citing other work; also called human seipin
B1: binds.
